Source: patent publication US9549967B2, “Regulation of sodium channels by PLUNC proteins” (The University of North Carolina at Chapel Hill, priority 2009, dated 2017)

What was measured:
[1] = biological target: yfp-tagged αENaC stably expressed on JME nasal epithelial cells; experiment: fluorescence binding isotherm on polarized JME cells expressing yfp-αENaC, empty-vector cells as non-specific control, Hill fit
[2] = tested on: T1, Recombinant SPLUNC1 (V5/6His-tagged, purified from HEK293 media)
T1 sequence: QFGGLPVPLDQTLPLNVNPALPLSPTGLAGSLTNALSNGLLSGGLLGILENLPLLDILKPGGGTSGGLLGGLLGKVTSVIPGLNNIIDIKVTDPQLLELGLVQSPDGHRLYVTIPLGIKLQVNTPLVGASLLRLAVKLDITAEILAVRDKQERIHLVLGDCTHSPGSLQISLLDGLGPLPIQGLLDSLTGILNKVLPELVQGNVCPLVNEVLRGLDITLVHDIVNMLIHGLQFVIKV

[3] = biological target: αβγENaC expressed in Xenopus laevis oocytes (rat) (UniProt P37089); experiment: cell-based or functional assay
[4] = biological target: ENaC endogenous to primary human bronchial epithelial cultures (human) (UniProt P37088); experiment: cell-based or functional assay
ENaC endogenous to primary human bronchial epithelial cultures (human), sequence (P37088 whole entry, chain 1 of 3): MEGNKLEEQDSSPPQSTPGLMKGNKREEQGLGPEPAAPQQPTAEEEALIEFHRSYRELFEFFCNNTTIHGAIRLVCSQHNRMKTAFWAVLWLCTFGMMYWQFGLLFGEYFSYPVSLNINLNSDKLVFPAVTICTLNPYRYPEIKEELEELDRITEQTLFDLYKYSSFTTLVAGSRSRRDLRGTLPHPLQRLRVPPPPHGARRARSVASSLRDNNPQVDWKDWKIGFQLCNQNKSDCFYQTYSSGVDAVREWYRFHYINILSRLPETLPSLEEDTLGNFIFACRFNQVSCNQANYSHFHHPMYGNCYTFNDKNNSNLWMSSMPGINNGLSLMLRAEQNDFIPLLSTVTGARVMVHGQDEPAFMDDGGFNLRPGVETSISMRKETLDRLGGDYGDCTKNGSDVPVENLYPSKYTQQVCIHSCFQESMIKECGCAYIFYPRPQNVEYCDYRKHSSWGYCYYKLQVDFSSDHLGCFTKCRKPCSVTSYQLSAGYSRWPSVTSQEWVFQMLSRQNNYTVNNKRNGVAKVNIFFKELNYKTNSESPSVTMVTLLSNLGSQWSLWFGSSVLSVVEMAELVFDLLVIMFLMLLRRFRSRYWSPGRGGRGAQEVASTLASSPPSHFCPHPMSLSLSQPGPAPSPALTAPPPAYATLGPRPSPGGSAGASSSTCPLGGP
ENaC endogenous to primary human bronchial epithelial cultures (human), sequence (P51168 whole entry, chain 2 of 3, further chain): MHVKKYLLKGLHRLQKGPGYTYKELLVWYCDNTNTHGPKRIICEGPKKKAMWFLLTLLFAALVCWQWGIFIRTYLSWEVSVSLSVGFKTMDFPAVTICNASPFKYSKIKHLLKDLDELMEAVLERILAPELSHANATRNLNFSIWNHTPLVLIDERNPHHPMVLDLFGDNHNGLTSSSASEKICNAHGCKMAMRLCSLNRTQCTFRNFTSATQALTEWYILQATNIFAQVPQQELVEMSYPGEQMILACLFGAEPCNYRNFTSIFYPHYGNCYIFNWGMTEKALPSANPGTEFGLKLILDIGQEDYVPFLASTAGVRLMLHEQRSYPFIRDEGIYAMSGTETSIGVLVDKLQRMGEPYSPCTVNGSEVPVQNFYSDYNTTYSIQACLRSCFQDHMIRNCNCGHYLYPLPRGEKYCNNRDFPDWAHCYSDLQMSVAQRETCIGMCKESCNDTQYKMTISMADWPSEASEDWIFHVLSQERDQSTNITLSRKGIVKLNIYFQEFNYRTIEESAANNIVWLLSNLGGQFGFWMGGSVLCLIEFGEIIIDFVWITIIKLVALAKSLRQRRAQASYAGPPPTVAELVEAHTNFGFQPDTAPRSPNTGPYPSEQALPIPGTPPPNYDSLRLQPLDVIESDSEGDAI
ENaC endogenous to primary human bronchial epithelial cultures (human), sequence (P51170 whole entry, chain 3 of 3, further chain): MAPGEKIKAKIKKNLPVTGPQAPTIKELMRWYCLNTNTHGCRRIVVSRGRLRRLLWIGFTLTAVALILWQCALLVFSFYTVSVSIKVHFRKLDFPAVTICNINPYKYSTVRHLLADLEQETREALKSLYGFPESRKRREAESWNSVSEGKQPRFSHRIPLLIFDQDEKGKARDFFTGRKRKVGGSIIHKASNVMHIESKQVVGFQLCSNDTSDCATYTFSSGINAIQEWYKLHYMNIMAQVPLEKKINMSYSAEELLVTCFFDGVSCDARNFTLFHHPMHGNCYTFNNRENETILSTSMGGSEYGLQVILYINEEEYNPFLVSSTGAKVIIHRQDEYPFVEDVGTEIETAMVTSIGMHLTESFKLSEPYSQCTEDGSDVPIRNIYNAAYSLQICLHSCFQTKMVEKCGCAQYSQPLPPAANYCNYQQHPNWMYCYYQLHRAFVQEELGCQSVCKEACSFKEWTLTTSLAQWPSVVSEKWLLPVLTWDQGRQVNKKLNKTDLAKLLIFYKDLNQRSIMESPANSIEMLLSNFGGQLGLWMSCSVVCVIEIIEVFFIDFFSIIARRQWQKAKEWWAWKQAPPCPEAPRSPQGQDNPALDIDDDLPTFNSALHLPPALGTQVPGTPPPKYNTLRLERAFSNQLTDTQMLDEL

[5] = biological target: T2, ENaC containing the βS518C mutant (Rattus norvegicus, UniProt P37089+P37090+P37091, S518C); experiment: Oocyte current of ENaC containing the βS518C mutant with MTSET; assay type: cell-based; settings: addition of MTSET
T2 construct: expressed in transfected cells; host or cells: Xenopus oocytes
T2 sequence (P37089 1-698): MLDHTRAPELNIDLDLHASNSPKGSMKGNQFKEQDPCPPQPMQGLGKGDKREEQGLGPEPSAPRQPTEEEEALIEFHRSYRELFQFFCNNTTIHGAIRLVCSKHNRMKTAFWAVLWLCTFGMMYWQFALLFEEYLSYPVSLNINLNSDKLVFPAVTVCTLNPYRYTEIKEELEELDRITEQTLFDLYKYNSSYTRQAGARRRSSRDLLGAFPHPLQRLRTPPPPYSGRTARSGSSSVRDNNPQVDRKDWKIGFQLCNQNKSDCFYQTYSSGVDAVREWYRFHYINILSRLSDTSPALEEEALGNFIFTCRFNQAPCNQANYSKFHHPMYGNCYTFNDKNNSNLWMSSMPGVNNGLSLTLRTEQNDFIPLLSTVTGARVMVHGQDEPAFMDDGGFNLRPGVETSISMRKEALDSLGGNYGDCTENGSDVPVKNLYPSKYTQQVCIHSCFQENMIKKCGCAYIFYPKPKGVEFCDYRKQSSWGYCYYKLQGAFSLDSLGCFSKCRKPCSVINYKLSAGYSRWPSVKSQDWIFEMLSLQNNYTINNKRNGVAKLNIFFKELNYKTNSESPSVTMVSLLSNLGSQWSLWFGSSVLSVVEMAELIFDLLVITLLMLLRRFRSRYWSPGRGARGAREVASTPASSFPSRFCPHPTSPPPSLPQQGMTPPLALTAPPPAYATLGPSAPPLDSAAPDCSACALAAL
T2 sequence (P37090 1-638 S518C): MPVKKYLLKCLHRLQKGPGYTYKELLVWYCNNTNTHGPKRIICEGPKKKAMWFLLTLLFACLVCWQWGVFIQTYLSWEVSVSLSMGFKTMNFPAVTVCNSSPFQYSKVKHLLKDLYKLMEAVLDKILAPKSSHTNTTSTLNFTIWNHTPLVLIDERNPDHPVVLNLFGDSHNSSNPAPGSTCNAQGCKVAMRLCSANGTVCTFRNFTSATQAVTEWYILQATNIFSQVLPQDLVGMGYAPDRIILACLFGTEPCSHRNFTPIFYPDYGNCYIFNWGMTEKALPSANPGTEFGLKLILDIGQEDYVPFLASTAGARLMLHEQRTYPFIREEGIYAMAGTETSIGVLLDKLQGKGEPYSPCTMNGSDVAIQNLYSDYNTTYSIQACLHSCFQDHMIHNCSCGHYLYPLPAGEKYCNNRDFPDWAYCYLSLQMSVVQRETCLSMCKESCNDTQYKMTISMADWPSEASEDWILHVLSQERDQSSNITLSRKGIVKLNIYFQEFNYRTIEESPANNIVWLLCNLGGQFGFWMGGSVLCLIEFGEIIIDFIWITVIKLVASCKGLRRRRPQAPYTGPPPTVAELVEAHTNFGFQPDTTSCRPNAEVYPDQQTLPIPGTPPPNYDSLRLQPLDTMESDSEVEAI
T2 sequence (P37091 1-650): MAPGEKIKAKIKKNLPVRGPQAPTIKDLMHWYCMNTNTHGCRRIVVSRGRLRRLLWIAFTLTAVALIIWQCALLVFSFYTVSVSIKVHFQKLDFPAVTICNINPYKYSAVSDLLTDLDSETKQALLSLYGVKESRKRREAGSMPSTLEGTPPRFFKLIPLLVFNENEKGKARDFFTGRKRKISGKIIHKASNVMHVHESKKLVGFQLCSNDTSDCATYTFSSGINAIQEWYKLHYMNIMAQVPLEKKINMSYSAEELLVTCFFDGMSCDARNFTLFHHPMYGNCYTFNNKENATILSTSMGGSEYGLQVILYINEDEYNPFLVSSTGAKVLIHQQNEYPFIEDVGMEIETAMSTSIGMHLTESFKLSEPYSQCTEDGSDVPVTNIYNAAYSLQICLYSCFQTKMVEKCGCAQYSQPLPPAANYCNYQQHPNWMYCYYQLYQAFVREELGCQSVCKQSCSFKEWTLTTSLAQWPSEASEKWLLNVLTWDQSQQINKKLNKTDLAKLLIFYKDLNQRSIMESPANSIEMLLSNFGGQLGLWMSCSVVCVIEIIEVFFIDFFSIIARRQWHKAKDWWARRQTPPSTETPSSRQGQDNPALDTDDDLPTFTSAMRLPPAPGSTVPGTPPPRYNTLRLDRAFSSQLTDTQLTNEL
Procedure: Oocyte studies. Xenopus laevis oocytes were harvested and injected as described (Donaldson, et al., J. Biol. Chem. 277:8338 (2002)). Defolliculated healthy stage V-VI oocytes were injected with 0.3 ng of cRNA of each ENaC subunit. Injected oocytes were kept in modified Barth's saline (in mM: 88 NaCl, 1 KCl, 2.4 NaHCO3, 0.3 Ca(NO3)2, 0.41 CaCl2, 0.82 MgSO4, and 15 HEPES, adjusted to pH 7.35 with Tris). Oocytes were studied 24 hr after injection using the two electrode voltage clamp technique as previously described (Donaldson, et al., J. Biol. Chem. 277:8338 (2002)). Oocytes were clamped at a holding potential of […]. The change in amiloride-sensitive whole cell current as an indicator of ENaC activity was determined by subtracting the corresponding current value measured in the presence of 10 μM amiloride from that measured before the application of amiloride.
The effect of SPLUNC1 on the number of ENaC channels in the plasma membrane was tested by expressing SPLUNC1 and αENaC in Xenopus oocytes. After surface biotinylation of αENaC, total lysate was prepared and lysate from 3-4 eggs was separated on a 10% gel.

[6] = biological target: αβγENaC expressed in Xenopus laevis oocytes (rat, UniProt P37089 1-698; P37090 1-638; P37091 1-650); experiment: cell-based or functional assay

yfp-tagged αENaC stably expressed on JME nasal epithelial cells, sequence (P37088 whole entry): as the sequence (P37088 whole entry, chain 1 of 3) above

Texas red-labeled recombinant SPLUNC1 (from UniProt Q9NP55 20-256)
Kd [1]: 0.055 µg/mL

trypsin
cleavage of fluorogenic substrate BGAR-MCA by 1.0 or 0.3 U/ml trypsin [2]: 50 ng/ml rSPLUNC1 had only a modest affect (˜10%) on the ability of either 1.0 or 0.3 U/ml trypsin to cleave a fluorogenic substrate

Recombinant SPLUNC1 (V5/6His-tagged, purified from HEK293 media) (from UniProt Q9NP55 20-256)
decrease in ENaC currents (amiloride-sensitive whole cell current, oocytes) [3]: 70% | ENaC inhibition [4]: 70% | transepithelial electrical resistance [4]: 33%

C[N+](C)(C)CCSS(C)(=O)=O.[Br-] [MTSET, reference compound]
ENaC Po [5]: 1.0

B1: V5-tagged SPLUNC1 expressed in Xenopus oocytes (other, not shown: small tags and cut ends)
chain: QFGGLPVPLDQTLPLNVNPALPLSPTGLAGSLTNALSNGLLSGGLLGILENLPLLDILKPGGGTSGGLLGGLLGKVTSVIPGLNNIIDIKVTDPQLLELGLVQSPDGHRLYVTIPLGIKLQVNTPLVGASLLRLAVKLDITAEILAVRDKQERIHLVLGDCTHSPGSLQISLLDGLGPLPIQGLLDSLTGILNKVLPELVQGNVCPLVNEVLRGLDITLVHDIVNMLIHGLQFVIKV
decrease in amiloride-sensitive ENaC current relative to control oocytes [6]: ~70%
